Measured values reported in PMC4978918.

Experiments:
Assay in all cases: co-IP; anti-V5 IP of Scc4-3V5 or scc4-RID-3V5 from yeast extracts, cells at midlog phase in YPD at 23°, IPH50 buffer (50 mM Tris pH 8.0, 50 mM NaCl, 5 mM EDTA, 0.5% NP-40), 4°; blot with anti-Myc (Scc2) or anti-HA (Smc1)
[1] = molecular target: scc4-S505ins-3V5 (S. cerevisiae) (UniProt P40090)
[2] = molecular target: scc4-V485ins-3V5 (S. cerevisiae) (UniProt P40090)
[3] = molecular target: scc4-L305ins-3V5 (S. cerevisiae) (UniProt P40090)
[4] = molecular target: scc4-L490ins-3V5 (S. cerevisiae) (UniProt P40090)

- co-precipitation, percent of the wild-type level [1]: 50%
- co-precipitation, percent of the wild-type level [2]: 50%
- co-precipitation, percent of the wild-type level [3]: 50%
- co-precipitation, percent of the wild-type level [4]: 50%
B1: Scc2-12Myc (natural protein)
chain: MSYPGKDKNIPGRIIEALEDLPLSYLVPKDGLAALVNAPMRVSLPFDKTIFTSADDGRDVNINVLGTANSTTSSIKNEAEKERLVFKRPSNFTSSANSVDYVPTNFLEGLSPLAQSVLSTHKGLNDSINIEKKSEIVSRPEAKHKLESVTSNAGNLSFNDNSSNKKTKTSTGVTMTQANLAEQYLNDLKNILDIVGFDQNSAEIGNIEYWLQLPNKKFVLTTNCLTKLQMTIKNITDNPQLSNSIEITWLLRLLDVMVCNIKFSKSSLKMGLDDSMLRYIALLSTIVLFNIFLLGKNDSNLHRESYIMEPVNFLSDLIESLKILTIEYGSLKIEFDTFQEALELLPKYIRNGPFLDDNVTAKLVYIFSDLLMNNDIEATTNIQFQSFWDNVKRISSDILVSLFGSFDQQRGFIIEELLSHIEKLPTKRIQKKLRKVGNQNIYITDFTFTLMSMLENINCYSFCNQMKDIAPENIDLLKNEYKKQEEFLFNIVEHINDTILERFFKNPSALRYVIDNFVQDLLLLISSPQWPVTEKILSSLLKRLLSVYSPSMQVSANIETICLQLIGNIGSTIFDIKCSTRDHEDNNLIKMINYPETLPHFFKSFEECIAYNETIKCRRSATRFLWNLRLGTILILEEYTKDAKEQIITVDNELKKILEQIKDGGLGPELENREADFSTIKLDYFSILHAFELLNLYDPYLKLILSLLAKDKIKLRSTAIKCLSMLASKDKVILSNPMVKETIHRRLNDSSASVKDAILDLVSINSSYFEFYQQINNNYNDDSIMVRKHVLRINEKMYDETNDIVTKVYVIARILMKIEDEEDNIIDMARLILLNRWILKVHEVLDQPEKLKEISSSVLLVMSRVAIMNEKCSQLFDLFLNFYLLNKEAHSKEAYDKITHVLTILTDFLVQKIVELNSDDTNEKNSIVDKQNFLNLLAKFADSTVSFLTKDHITALYPYMVSDEKSDFHYYILQVFRCTFEKLANFKQKFLYDLETTLLSRLPKMNVREIDEAMPLIWSVATHRHDTARVAKACSSCLSHLHPYINKANNEEAAIVVDGKLQRLIYLSTGFARFCFPKPSNDKIAFLQEGETLYEHITKCLLVLSKDKITHVIRRVAVKNLTKLCGNHPKLFNSRHVLHLLDKEFQSDQLDIKLVILESLYDLFLLEERKSVRNTGVNSTLSSNSILKKKLLKTNRVEFANDGVCSALATRFLDNILQLCLLRDLKNSLVAIRLLKLILKFGYTNPSHSIPTVIALFASTSQYIRHVAYELLEDLFEKYETLVFSSLSRGVTKAIHYSIHTDEKYYYKHDHFLSLLEKLCGTGKKNGPKFFKVLKRIMQSYLDDITDLTSTNSSVQKSIFVLCTNISNITFVSQYDLVSLLKTIDLTTDRLKEVIMDEIGDNVSSLSVSEEKLSGIILIQLSLQDLGTYLLHLYGLRDDVLLLDIVEESELKNKQLPAKKPDISKFSAQLENIEQYSSNGKLLTYFRKHVKDT
